Values of other authors, collected in article PMC3839795.

Molecular target: Asp3 (position 2, ----SDNKTYG)
Assay: NMR
Settings: free peptide in solution (details not stated)

## SDNKTYG [Heptapeptide derived from turkey ovomucoid third domain (OMTKY3) (Meleagris gallopavo)]
  pKa: about 3.6
